Positions count from the first letter of the chain named. Where no end group is shown, it is not given here.
What was measured:
[1] = target: T1, recombinant human IL-33 protein (residues 112 to 270) (ILC0701, ATGen Co. Ltd) (human, UniProt O95760 112-270); test: cell-based or functional assay
T1 sequence: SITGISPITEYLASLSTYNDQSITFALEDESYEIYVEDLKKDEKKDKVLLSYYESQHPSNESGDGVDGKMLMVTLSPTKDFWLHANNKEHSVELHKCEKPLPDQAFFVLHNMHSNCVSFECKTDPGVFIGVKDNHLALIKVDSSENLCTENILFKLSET

[2] = target: T1, recombinant human IL-33 protein …; test: KinExA in PBS, neutral-purified IgG
Protocol: Each test antibody (IgG) (“antibody (IgG)” indicates an antibody having a molecular form of IgG; hereinafter, the same representation is used) was analyzed to confirm the affinity with the human IL-33 protein by measuring dissociation constant (Kd) between each test antibody and the human IL-33 protein in PBS by kinetic exclusion assay (KinExA) (KinExA3200, available from Sapidyne Instruments, Inc.). Mixture samples of a test antibody and a human IL-33 protein (ILC0701, available from ATGen Co. Ltd) were prepared. The human IL-33 protein was titrated to a constant concentration of test antibody (final concentration: several tens of pM to several hundreds of pM) over a wide concentration range of the human IL-33 protein (so that it covered the concentrations of the human IL-33 protein resulting from 12-step serial doubling dilutions, i.e. one- to 2048-fold, with the upper limit of final concentration set to several nM to several tens of nM). The mixture samples were incubated at a room temperature until the antigen-antibody reaction reached equilibrium. After the reaction reached equilibrium, the percentage of free anti-IL-33 antibody in each sample was analyzed using KinExA3200. The values of Kd were calculated by fitting the plot of percentages of anti-IL-33 antibody not bound to the human IL-33 protein (vertical axis) and concentrations of antigen (horizontal axis) to a theoretical formula, using a KinExA data analysis program (KinExA Pro Software v3.5.3, available from Sapidyne Instruments, Inc.). Beads for capturing the anti-IL-33 antibody were prepared by suspending 50 mg of Azlactone beads (Sapidyne) in 1 mL of coating solution (10 μg/mL human IL-33 protein (ILC0701, available from ATGen Co. Ltd), 50 mM sodium carbonate at pH of 9.6) and incubating the solution at a room temperature for one hour. The antibody for detection used was anti-human F(ab)′2-DyLight649 (Jackson, 309-495-006).

[3] = target: T1, recombinant human IL-33 protein …; test: KinExA in PBS, alkaline-purified IgG
Protocol: (§1) Mixture samples of a test antibody and a human IL-33 protein (ILC0701, available from ATGen Co. Ltd) were prepared. The human IL-33 protein was titrated to a constant concentration of test antibody (final concentration: several tens of pM to several hundreds of pM) over a wide concentration range of the human IL-33 protein (so that it covered the concentrations of the human IL-33 protein resulting from 12-step serial doubling dilutions, i.e. one- to 2048-fold, with the upper limit of final concentration set to several nM to several tens of nM). The mixture samples were incubated at a room temperature until the antigen-antibody reaction reached equilibrium. After the reaction reached equilibrium, the percentage of free anti-IL-33 antibody in each sample was analyzed using KinExA3200. The values of Kd were calculated by fitting the plot of percentages of anti-IL-33 antibody not bound to the human IL-33 protein (vertical axis) and concentrations of antigen (horizontal axis) to a theoretical formula, using a KinExA data analysis program (KinExA Pro Software v3.5.3, available from Sapidyne Instruments, Inc.). Beads for capturing the anti-IL-33 antibody were prepared by suspending 50 mg of Azlactone beads (Sapidyne) in 1 mL of coating solution (10 μg/mL human IL-33 protein (ILC0701, available from ATGen Co. Ltd), 50 mM sodium carbonate at pH of 9.6) and incubating the solution at a room temperature for one hour. The antibody for detection used was anti-human F(ab)′2-DyLight649 (Jackson, 309-495-006).

[4] = target: T1, recombinant human IL-33 protein …; test: SPR (Biacore T200), human IL-33 (ILC0701) immobilized on CM5, Calibration Free Concentration Analysis of the preserved antibody against a control-preserved sample
Protocol: Each alkaline-purified antibody was dissolved in a citrate buffer (50 mM citric acid; 150 mM NaCl (pH: 6.3)) at a concentration of about 10 mg/mL, and was preserved at a temperature of 40° C. for four weeks, to evaluate the preservation stability of each test antibody (IgG). For evaluation of the monomer purity of each antibody after the preservation, monomer purity was measured by size exclusion chromatography analysis (SEC) and microchip capillary SDS electrophoresis (mCE-SDS), and antigen-binding activity was measured by surface plasmon resonance.
In order to confirm the presence of the antigen-binding ability after the preservation, the antigen-binding activity was measured with a surface plasmon resonance system, Biacore T200 (available from GE Healthcare). A human IL-33 protein (ILC0701, available from ATGen Co. Ltd) was immobilized onto a Sensor Chip CM5 (GE Healthcare) (the amount of immobilized protein was about 3000 to 6000 RU) with Amine Coupling Kit (GE Healthcare). Each preserved antibody solution was then diluted to 10-fold with a citric buffer (50 mM citric acid, 150 mM NaCl (pH: 6.3)), and the resulting solution was analyzed to measure the total protein concentration in the solution, using a microvolume spectrophotometer, Astragene II (Astranet Systems, Ltd.) (protein concentration: about 1 mg/mL). The antibody solution after the measurement of the total protein concentration was diluted to 1000-fold with HBS-EP buffer (10 mM HEPES, 150 mM NaCl, 3 mM EDTA, 0.05% (v/v) Surfactant P20 (at pH of 7.4)). The analyte was thereby prepared. The measurement temperature was 25° C. Each analyte was added for 36 seconds at two flow rates of 5 μL/min and 100 μL/min to obtain sensorgrams of the association phase. The sensorgrams were then analyzed by Calibration Free Concentration Analysis using a data analysis program (GE Healthcare, Biacore T200 Evaluation Software v1.0) to determine the concentration of the antibody having antigen-binding activity. As control, each test antibody after preservation at a temperature of 4° C. for four weeks was also analyzed to confirm the antigen-binding activity, to calculate the ratio of antigen-binding activity of each test antibody after the preservation at a temperature of 40° C. for four weeks.

[5] = target: T2, DQSITFALEDESYEIYVEDL (PEP14) (human, not fully specified); test: KinExA, alkaline-purified IgG, peptide
T2 peptide: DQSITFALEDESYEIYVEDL
Protocol: (§2) The mixture samples were incubated at a room temperature until the antigen-antibody reaction reached equilibrium. After the reaction reached equilibrium, the percentage of free anti-IL-33 antibody in each sample was analyzed using KinExA3200. The values of Kd were calculated by fitting the plot of percentages of anti-IL-33 antibody not bound to the human IL-33 protein (vertical axis) and concentrations of antigen (horizontal axis) to a theoretical formula, using a KinExA data analysis program (KinExA Pro Software v3.5.3, available from Sapidyne Instruments, Inc.). Beads for capturing the anti-IL-33 antibody were prepared by suspending 50 mg of Azlactone beads (Sapidyne) in 1 mL of coating solution (10 μg/mL human IL-33 protein (ILC0701, available from ATGen Co. Ltd), 50 mM sodium carbonate at pH of 9.6) and incubating the solution at a room temperature for one hour. The antibody for detection used was anti-human F(ab)′2-DyLight649 (Jackson, 309-495-006).
(§3) The anti-IL-33 monoclonal antibodies A10-1C04 and A25-3H04 bound to the epitope PEP14 as described in the Example 1. […] These peptides were synthesized, and the affinity with the alkali-purified antibodies was calculated as Kd by the KinExA experiment as in Example 9 (Table 14).

LEDESYEIYV = target: T3, LEDESYEIYV (human, not fully specified (N-terminus)); test: KinExA, alkaline-purified IgG, peptide
T3 construct: synthetic peptide
T3 peptide: LEDESYEIYV
Protocol: as §2, §3

EDESYEIYV = target: T4, EDESYEIYV (human, not fully specified (N-terminus)); test: KinExA, alkaline-purified IgG, peptide
T4 construct: synthetic peptide
T4 peptide: EDESYEIYV
Protocol: as §2, §3

[6] = target: T5, full-length human IL-33 protein (human, UniProt O95760 1-270); test: KinExA in PBS, alkaline-purified IgG
T5 construct: also called Human IL-33 (Full-Length)
T5 sequence: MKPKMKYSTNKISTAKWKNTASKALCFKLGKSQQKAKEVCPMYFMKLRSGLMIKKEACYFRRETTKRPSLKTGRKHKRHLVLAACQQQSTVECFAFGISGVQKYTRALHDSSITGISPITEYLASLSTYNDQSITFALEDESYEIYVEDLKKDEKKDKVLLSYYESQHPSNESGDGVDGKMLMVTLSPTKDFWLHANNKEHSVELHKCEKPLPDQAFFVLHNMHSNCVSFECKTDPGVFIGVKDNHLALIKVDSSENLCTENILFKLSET
Protocol: as §1

B1: A23-1A05 (IgG) (antibody, V domains shown)
VH: EVQLLESGGGLVQPGGSLRLSCAASGFTFSNYYMHWVRQAPGKGLEWVSSISARSRYHYYADSVKGRFTISRDNSKNTLYLQMNSLRAEDTAVYYCARLATRHNAFDIWGQGTLVTVSS
VL: QSVLTQPPSASGTPGQRVTISCSGSSSNIGNNAVSWYQQLPGTAPKLLIYASNMRVIGVPDRFSGSKSGTSASLAISGLRSEDEADYYCGAWDDSQKALVFGGGTKLTVL
notes: tested as neutral-purified and as alkaline-purified antibody; also called V8; IGN8
IC50 of inhibition of IL-6 production by HUVEC (alkaline-purified IgG, human IL-33 100 ng/mL) [1]: 0.27 µg/mL
inhibition of IFN-γ production by human PBMC (alkaline-purified IgG 10 ug/mL, IL-33 10 ng/mL, IL-12 10 ng/mL) [1]: 97.5%
inhibition of production of IL-5 and IL-13 by KU-812 cells (alkaline-purified IgG 1 ug/mL; IL-33 3 ng/mL with IL-3 and C5a) [1]: ≥ 50%
percentage of inhibition (%) of IL-6 production by HUVEC (neutral-purified IgG 1 ug/mL, IL-33 100 ng/mL) [1]: 74%
Kd [2]: 231 pM
Kd [3]: 195 pM
% Active IgG (antigen binding activity after preservation at 40 C for 4 W) [4]: 102%

B2: A25-2C02 (IgG) (antibody, V domains shown)
VH: B1 VH with R56S, H58I, H103N
VL: B1 VL with N31R, S35N, I57S, G90W, A98V, L99G
notes: tested as neutral-purified and as alkaline-purified antibody; also called V15; IGN15
IC50 of inhibition of IL-6 production by HUVEC (alkaline-purified IgG, human IL-33 100 ng/mL) [1]: 0.19 µg/mL
inhibition of IFN-γ production by human PBMC (alkaline-purified IgG 10 ug/mL, IL-33 10 ng/mL, IL-12 10 ng/mL) [1]: 98.8%
inhibition of production of IL-5 and IL-13 by KU-812 cells (alkaline-purified IgG 1 ug/mL; IL-33 3 ng/mL with IL-3 and C5a) [1]: ≥ 50%
percentage of inhibition (%) of IL-6 production by HUVEC (neutral-purified IgG 1 ug/mL, IL-33 100 ng/mL) [1]: 96%
Kd [2]: 0.72 pM
Kd [3]: 0.7 pM
% Active IgG (antigen binding activity after preservation at 40 C for 4 W) [4]: 100%

B3: A25-3H04 (IgG) (antibody, V domains shown)
VH: B1 VH with N31R, R54Q, R56S, Y57H, H58I, K65E, H103Q
VL: B1 VL with N31R, S35N, V56R, I57S, G90S, A98V, L99V
notes: tested as neutral-purified and as alkaline-purified antibody; also called V17; IGN17
IC50 of inhibition of IL-6 production by HUVEC (alkaline-purified IgG, human IL-33 100 ng/mL) [1]: 0.21 µg/mL
inhibition of IFN-γ production by human PBMC (alkaline-purified IgG 10 ug/mL, IL-33 10 ng/mL, IL-12 10 ng/mL) [1]: 97.9%
inhibition of production of IL-5 and IL-13 by KU-812 cells (alkaline-purified IgG 1 ug/mL; IL-33 3 ng/mL with IL-3 and C5a) [1]: ≥ 50%
percentage of inhibition (%) of IL-6 production by HUVEC (neutral-purified IgG 1 ug/mL, IL-33 100 ng/mL) [1]: 97%
Kd [2]: 5.38 pM
Kd [3]: 7.7 pM
Kd [5]: 1.5 pM
Kd (LEDESYEIYV): 11000 pM
Kd (EDESYEIYV): 301000 pM
% Active IgG (antigen binding activity after preservation at 40 C for 4 W) [4]: 102%

B4: A26-1F02 (IgG) (antibody, V domains shown)
VH: B1 VH with R56S, H58L, N104V
VL: B1 VL with S35N, V56R, I57P, G90E, L99V
notes: tested as neutral-purified and as alkaline-purified antibody; also called V18; IGN18
IC50 of inhibition of IL-6 production by HUVEC (alkaline-purified IgG, human IL-33 100 ng/mL) [1]: 0.23 µg/mL
inhibition of IFN-γ production by human PBMC (alkaline-purified IgG 10 ug/mL, IL-33 10 ng/mL, IL-12 10 ng/mL) [1]: 98.2%
inhibition of production of IL-5 and IL-13 by KU-812 cells (alkaline-purified IgG 1 ug/mL; IL-33 3 ng/mL with IL-3 and C5a) [1]: ≥ 50%
percentage of inhibition (%) of IL-6 production by HUVEC (neutral-purified IgG 1 ug/mL, IL-33 100 ng/mL) [1]: 96%
Kd [2]: 10.8 pM
Kd [3]: 5.3 pM
Kd [6]: 10.4 pM
% Active IgG (antigen binding activity after preservation at 40 C for 4 W) [4]: 101%

— patent US20240002495A1 (MITSUBISHI TANABE PHARMA, published 2024)
